Data on 1 molecule can be found in patent US20110027269A1.

The star is where a group is joined. Biotin = O=C1N[C@H]2[C@H](CS[C@H]2CCCCC(=O)*)N1

In this test the target is 14-3-3 proteins present within the KLCCM. Nature of the test: cell-based or functional assay.

Consider Biotin-PHCVPRDLSWLDLEANMCLP-OH (cysteine pairing not given here) [biotinylated R18], for which the MMP-1 expression in dermal fibroblasts treated with KLCCM (western blot, MMP-1/β-actin ratio) was 68.8 % reduction.
